The test deals with hRpn10^322–366 peptide with Y326 phosphorylated (human) (UniProt P55036). Put plainly: ITC; 25 °C, MicroCal iTC200; E6AP AZUL injected into hRpn10 305-377 (0.0405 mM) or hRpn10 322-366 peptides (0.01 mM) in the cell; 10 mM MOPS pH 6.5, 50 mM NaCl, 5 mM DTT, 10 μM zinc sulfate; one-site fit.

E6AP AZUL (amino-terminal zinc-binding domain of ubiquitin E3a ligase), amino acids 24 to 87, sequence (Q05086 24-87): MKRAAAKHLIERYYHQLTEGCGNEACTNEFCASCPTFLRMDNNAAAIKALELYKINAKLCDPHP

On to “E6AP AZUL (amino-terminal zinc-binding domain of ubiquitin E3a ligase), amino acids 24 to 87 (from UniProt Q05086 24-87) (domain or fragment)”, for which the fold reduction of affinity against unphosphorylated hRpn10 322-366 is 10 fold.

Source of the values: article PMC7064531.
